From patent US20210388087A1 (Chugai, published 2021)

B1: H183/L072 VL T31Q (antibody, name in Kabat numbering, V domains shown)
VH: QVQLVESGGGLVQPGRSLRLSCAASGFTFSNAWMHWVRQAPGKGLEWVAQIKDKGNAYAAYYAPSVKGRFTISRDDSKNSIYLQMNSLKTEDTAVYYCHYVHYASASTVLPAFGVDAWGQGTTVTVSS
VL: DIVMTQSPLSLPVTPGEPASISCQASQELVHMNRNQYLHWYQQKPGQAPRLLIYKVSNRFPGVPDRFSGSGSGTDFTLKISRVEAEDVGVYYCAQGTSVPFTFGQGTKLEIK
B2: H183/L072 VL T31V (antibody, name in Kabat numbering, V domains shown)
VH: QVQLVESGGGLVQPGRSLRLSCAASGFTFSNAWMHWVRQAPGKGLEWVAQIKDKGNAYAAYYAPSVKGRFTISRDDSKNSIYLQMNSLKTEDTAVYYCHYVHYASASTVLPAFGVDAWGQGTTVTVSS
VL: DIVMTQSPLSLPVTPGEPASISCQASQELVHMNRNVYLHWYQQKPGQAPRLLIYKVSNRFPGVPDRFSGSGSGTDFTLKISRVEAEDVGVYYCAQGTSVPFTFGQGTKLEIK
B3: H183/L072 VL T97A (antibody, name in Kabat numbering, V domains shown)
VH: QVQLVESGGGLVQPGRSLRLSCAASGFTFSNAWMHWVRQAPGKGLEWVAQIKDKGNAYAAYYAPSVKGRFTISRDDSKNSIYLQMNSLKTEDTAVYYCHYVHYASASTVLPAFGVDAWGQGTTVTVSS
VL: DIVMTQSPLSLPVTPGEPASISCQASQELVHMNRNTYLHWYQQKPGQAPRLLIYKVSNRFPGVPDRFSGSGSGTDFTLKISRVEAEDVGVYYCAQGTSVPFAFGQGTKLEIK
B4: H183/L072 VL T31R (antibody, name in Kabat numbering, V domains shown)
VH: QVQLVESGGGLVQPGRSLRLSCAASGFTFSNAWMHWVRQAPGKGLEWVAQIKDKGNAYAAYYAPSVKGRFTISRDDSKNSIYLQMNSLKTEDTAVYYCHYVHYASASTVLPAFGVDAWGQGTTVTVSS
VL: DIVMTQSPLSLPVTPGEPASISCQASQELVHMNRNRYLHWYQQKPGQAPRLLIYKVSNRFPGVPDRFSGSGSGTDFTLKISRVEAEDVGVYYCAQGTSVPFTFGQGTKLEIK
B5: H183/L072 VL T31S (antibody, name in Kabat numbering, V domains shown)
VH: QVQLVESGGGLVQPGRSLRLSCAASGFTFSNAWMHWVRQAPGKGLEWVAQIKDKGNAYAAYYAPSVKGRFTISRDDSKNSIYLQMNSLKTEDTAVYYCHYVHYASASTVLPAFGVDAWGQGTTVTVSS
VL: DIVMTQSPLSLPVTPGEPASISCQASQELVHMNRNSYLHWYQQKPGQAPRLLIYKVSNRFPGVPDRFSGSGSGTDFTLKISRVEAEDVGVYYCAQGTSVPFTFGQGTKLEIK
B6: H183/L072 VL T92H (antibody, name in Kabat numbering, V domains shown)
VH: QVQLVESGGGLVQPGRSLRLSCAASGFTFSNAWMHWVRQAPGKGLEWVAQIKDKGNAYAAYYAPSVKGRFTISRDDSKNSIYLQMNSLKTEDTAVYYCHYVHYASASTVLPAFGVDAWGQGTTVTVSS
VL: DIVMTQSPLSLPVTPGEPASISCQASQELVHMNRNTYLHWYQQKPGQAPRLLIYKVSNRFPGVPDRFSGSGSGTDFTLKISRVEAEDVGVYYCAQGHSVPFTFGQGTKLEIK
B7: H183/L072 VL T92A (antibody, name in Kabat numbering, V domains shown)
VH: QVQLVESGGGLVQPGRSLRLSCAASGFTFSNAWMHWVRQAPGKGLEWVAQIKDKGNAYAAYYAPSVKGRFTISRDDSKNSIYLQMNSLKTEDTAVYYCHYVHYASASTVLPAFGVDAWGQGTTVTVSS
VL: DIVMTQSPLSLPVTPGEPASISCQASQELVHMNRNTYLHWYQQKPGQAPRLLIYKVSNRFPGVPDRFSGSGSGTDFTLKISRVEAEDVGVYYCAQGASVPFTFGQGTKLEIK
B8: H183/L072 VL T92M (antibody, name in Kabat numbering, V domains shown)
VH: QVQLVESGGGLVQPGRSLRLSCAASGFTFSNAWMHWVRQAPGKGLEWVAQIKDKGNAYAAYYAPSVKGRFTISRDDSKNSIYLQMNSLKTEDTAVYYCHYVHYASASTVLPAFGVDAWGQGTTVTVSS
VL: DIVMTQSPLSLPVTPGEPASISCQASQELVHMNRNTYLHWYQQKPGQAPRLLIYKVSNRFPGVPDRFSGSGSGTDFTLKISRVEAEDVGVYYCAQGMSVPFTFGQGTKLEIK
B9: H183/L072 VL T92L (antibody, name in Kabat numbering, V domains shown)
VH: QVQLVESGGGLVQPGRSLRLSCAASGFTFSNAWMHWVRQAPGKGLEWVAQIKDKGNAYAAYYAPSVKGRFTISRDDSKNSIYLQMNSLKTEDTAVYYCHYVHYASASTVLPAFGVDAWGQGTTVTVSS
VL: DIVMTQSPLSLPVTPGEPASISCQASQELVHMNRNTYLHWYQQKPGQAPRLLIYKVSNRFPGVPDRFSGSGSGTDFTLKISRVEAEDVGVYYCAQGLSVPFTFGQGTKLEIK
B10: H183/L072 VL T92K (antibody, name in Kabat numbering, V domains shown)
VH: QVQLVESGGGLVQPGRSLRLSCAASGFTFSNAWMHWVRQAPGKGLEWVAQIKDKGNAYAAYYAPSVKGRFTISRDDSKNSIYLQMNSLKTEDTAVYYCHYVHYASASTVLPAFGVDAWGQGTTVTVSS
VL: DIVMTQSPLSLPVTPGEPASISCQASQELVHMNRNTYLHWYQQKPGQAPRLLIYKVSNRFPGVPDRFSGSGSGTDFTLKISRVEAEDVGVYYCAQGKSVPFTFGQGTKLEIK
B11: H183/L072 VL T92F (antibody, name in Kabat numbering, V domains shown)
VH: QVQLVESGGGLVQPGRSLRLSCAASGFTFSNAWMHWVRQAPGKGLEWVAQIKDKGNAYAAYYAPSVKGRFTISRDDSKNSIYLQMNSLKTEDTAVYYCHYVHYASASTVLPAFGVDAWGQGTTVTVSS
VL: DIVMTQSPLSLPVTPGEPASISCQASQELVHMNRNTYLHWYQQKPGQAPRLLIYKVSNRFPGVPDRFSGSGSGTDFTLKISRVEAEDVGVYYCAQGFSVPFTFGQGTKLEIK
B12: H183/L072 VL T92S (antibody, name in Kabat numbering, V domains shown)
VH: QVQLVESGGGLVQPGRSLRLSCAASGFTFSNAWMHWVRQAPGKGLEWVAQIKDKGNAYAAYYAPSVKGRFTISRDDSKNSIYLQMNSLKTEDTAVYYCHYVHYASASTVLPAFGVDAWGQGTTVTVSS
VL: DIVMTQSPLSLPVTPGEPASISCQASQELVHMNRNTYLHWYQQKPGQAPRLLIYKVSNRFPGVPDRFSGSGSGTDFTLKISRVEAEDVGVYYCAQGSSVPFTFGQGTKLEIK
B13: H183/L072 VL T92Q (antibody, name in Kabat numbering, V domains shown)
VH: QVQLVESGGGLVQPGRSLRLSCAASGFTFSNAWMHWVRQAPGKGLEWVAQIKDKGNAYAAYYAPSVKGRFTISRDDSKNSIYLQMNSLKTEDTAVYYCHYVHYASASTVLPAFGVDAWGQGTTVTVSS
VL: DIVMTQSPLSLPVTPGEPASISCQASQELVHMNRNTYLHWYQQKPGQAPRLLIYKVSNRFPGVPDRFSGSGSGTDFTLKISRVEAEDVGVYYCAQGQSVPFTFGQGTKLEIK
B14: H183/L072 VL T92N (antibody, name in Kabat numbering, V domains shown)
VH: QVQLVESGGGLVQPGRSLRLSCAASGFTFSNAWMHWVRQAPGKGLEWVAQIKDKGNAYAAYYAPSVKGRFTISRDDSKNSIYLQMNSLKTEDTAVYYCHYVHYASASTVLPAFGVDAWGQGTTVTVSS
VL: DIVMTQSPLSLPVTPGEPASISCQASQELVHMNRNTYLHWYQQKPGQAPRLLIYKVSNRFPGVPDRFSGSGSGTDFTLKISRVEAEDVGVYYCAQGNSVPFTFGQGTKLEIK
B15: H183/L072 VL T92E (antibody, name in Kabat numbering, V domains shown)
VH: QVQLVESGGGLVQPGRSLRLSCAASGFTFSNAWMHWVRQAPGKGLEWVAQIKDKGNAYAAYYAPSVKGRFTISRDDSKNSIYLQMNSLKTEDTAVYYCHYVHYASASTVLPAFGVDAWGQGTTVTVSS
VL: DIVMTQSPLSLPVTPGEPASISCQASQELVHMNRNTYLHWYQQKPGQAPRLLIYKVSNRFPGVPDRFSGSGSGTDFTLKISRVEAEDVGVYYCAQGESVPFTFGQGTKLEIK
B16: H183/L072 VL T92R (antibody, name in Kabat numbering, V domains shown)
VH: QVQLVESGGGLVQPGRSLRLSCAASGFTFSNAWMHWVRQAPGKGLEWVAQIKDKGNAYAAYYAPSVKGRFTISRDDSKNSIYLQMNSLKTEDTAVYYCHYVHYASASTVLPAFGVDAWGQGTTVTVSS
VL: DIVMTQSPLSLPVTPGEPASISCQASQELVHMNRNTYLHWYQQKPGQAPRLLIYKVSNRFPGVPDRFSGSGSGTDFTLKISRVEAEDVGVYYCAQGRSVPFTFGQGTKLEIK
B17: H183/L072 VL T92G (antibody, name in Kabat numbering, V domains shown)
VH: QVQLVESGGGLVQPGRSLRLSCAASGFTFSNAWMHWVRQAPGKGLEWVAQIKDKGNAYAAYYAPSVKGRFTISRDDSKNSIYLQMNSLKTEDTAVYYCHYVHYASASTVLPAFGVDAWGQGTTVTVSS
VL: DIVMTQSPLSLPVTPGEPASISCQASQELVHMNRNTYLHWYQQKPGQAPRLLIYKVSNRFPGVPDRFSGSGSGTDFTLKISRVEAEDVGVYYCAQGGSVPFTFGQGTKLEIK
B18: H183/L072 VL T92V (antibody, name in Kabat numbering, V domains shown)
VH: QVQLVESGGGLVQPGRSLRLSCAASGFTFSNAWMHWVRQAPGKGLEWVAQIKDKGNAYAAYYAPSVKGRFTISRDDSKNSIYLQMNSLKTEDTAVYYCHYVHYASASTVLPAFGVDAWGQGTTVTVSS
VL: DIVMTQSPLSLPVTPGEPASISCQASQELVHMNRNTYLHWYQQKPGQAPRLLIYKVSNRFPGVPDRFSGSGSGTDFTLKISRVEAEDVGVYYCAQGVSVPFTFGQGTKLEIK
B19: H183/L072 VL T97D (antibody, name in Kabat numbering, V domains shown)
VH: QVQLVESGGGLVQPGRSLRLSCAASGFTFSNAWMHWVRQAPGKGLEWVAQIKDKGNAYAAYYAPSVKGRFTISRDDSKNSIYLQMNSLKTEDTAVYYCHYVHYASASTVLPAFGVDAWGQGTTVTVSS
VL: DIVMTQSPLSLPVTPGEPASISCQASQELVHMNRNTYLHWYQQKPGQAPRLLIYKVSNRFPGVPDRFSGSGSGTDFTLKISRVEAEDVGVYYCAQGTSVPFDFGQGTKLEIK
B20: H183/L072 VL T92D (antibody, name in Kabat numbering, V domains shown)
VH: QVQLVESGGGLVQPGRSLRLSCAASGFTFSNAWMHWVRQAPGKGLEWVAQIKDKGNAYAAYYAPSVKGRFTISRDDSKNSIYLQMNSLKTEDTAVYYCHYVHYASASTVLPAFGVDAWGQGTTVTVSS
VL: DIVMTQSPLSLPVTPGEPASISCQASQELVHMNRNTYLHWYQQKPGQAPRLLIYKVSNRFPGVPDRFSGSGSGTDFTLKISRVEAEDVGVYYCAQGDSVPFTFGQGTKLEIK

Molecular target: T1, Human CD3eg linker (human)
T1 construct: Single-chain construct; also called recombinant human CD3
T1 chain: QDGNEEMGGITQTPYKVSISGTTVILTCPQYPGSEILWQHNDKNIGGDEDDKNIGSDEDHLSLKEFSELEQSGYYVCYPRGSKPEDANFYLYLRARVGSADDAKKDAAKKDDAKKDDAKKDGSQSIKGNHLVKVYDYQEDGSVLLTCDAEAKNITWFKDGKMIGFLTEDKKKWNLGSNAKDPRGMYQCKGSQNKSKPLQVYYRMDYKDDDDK
Assay: SPR; fold vs parent H183/L072

Compared with B1, B2 is higher in “fold change of affinity” value: 0.4 fold for the first, 0.7 fold for the second.

First: B3
Second: B4
The “fold change of affinity” value of the first is higher: 0.8 fold for the first, 0.4 fold for the second.

Going from B5 to B6, the “fold change of affinity” value falls from 0.5 fold to 0.2 fold.

First: B7
Second: B8
The “fold change of affinity” value of the first is lower: 0.1 fold for the first, 0.3 fold for the second.

First: B9
Second: B10
The “fold change of affinity” value of the first is lower: 0.3 fold for the first, 0.8 fold for the second.

Going from B11 to B12, the “fold change of affinity” value rises from 0.3 fold to 0.5 fold.

Going from B13 to B14, the “fold change of affinity” value rises from 0 fold to 0.2 fold.

First: B15
Second: B16
The “fold change of affinity” value of the first is lower: 0 fold for the first, 0.5 fold for the second.

Going from B17 to B18, the “fold change of affinity” value rises from 0.2 fold to 0.4 fold.

Compared with B19, B20 is lower in “fold change of affinity” value: 0.6 fold for the first, 0 fold for the second.
